Laboratory results reported in patent US20250101135A1 (Hoffmann-La Roche, published 2025).

B1: FAP-targeted murine 4-1BB ligand trimer-containing Fc fusion antigen binding molecule Construct M.1 (Fc fusion)
chain 1: RTEPRPALTITTSPNLGTRENNADQVTPVSHIGSPNTTQQGSPVFAKLLAKNQASLSNTTLNWHSQDGAGSSYLSQGLRYEEDKKELVVDSPGLYYVFLELKLSPTFTNTGHKVQGWVSLVLQAKPQVDDFDNLALTVELFPSSMENKLVDRSWSQLLLLKAGHRLSVGLRAYLHGAQDAYRDWELSYPNTTSFGLFLVKPDNPWEGGGGSGGGGSRTEPRPALTITTSPNLGTRENNADQVTPVSHIGSPNTTQQGSPVFAKLLAKNQASLSNTTLNWHSQDGAGSSYLSQGLRYEEDKKELVVDSPGLYYVFLELKLSPTFTNTGHKVQGWVSLVLQAKPQVDDFDNLALTVELFPSSMENKLVDRSWSQLLLLKAGHRLSVGLRAYLHGAQDAYRDWELSYPNTTSFGLFLVKPDNPWEGGGGSGGGGSRADAAPTVSIFPPSSEQLTSGGASVVCFLNNFYPKDINVKWKIDGSERQNGVLNSWTDQDSKDSTYSMSSTLTLTKDEYERHNSYTCEATHKTSTSPIVKSFNRNECVPRDCGCKPCICTVPEVSSVFIFPPKPKDVLTITLTPKVTCVVVAISKDDPEVQFSWFVDDVEVHTAQTKPREEQINSTFRSVSELPIMHQDWLNGKEFKCRVNSAAFGAPIEKTISKTKGRPKAPQVYTIPPPKEQMAKDKVSLTCMITNFFPEDITVEWQWNGQPAENYDNTQPIMDTDGSYFVYSDLNVQKSNWEAGNTFTCSVLHEGLHNHHTEKSLSHSPGK
chain 2: RTEPRPALTITTSPNLGTRENNADQVTPVSHIGSPNTTQQGSPVFAKLLAKNQASLSNTTLNWHSQDGAGSSYLSQGLRYEEDKKELVVDSPGLYYVFLELKLSPTFTNTGHKVQGWVSLVLQAKPQVDDFDNLALTVELFPSSMENKLVDRSWSQLLLLKAGHRLSVGLRAYLHGAQDAYRDWELSYPNTTSFGLFLVKPDNPWEGGGGSGGGGSAKTTPPSVYPLAPGSAAQTNSMVTLGCLVKGYFPEPVTVTWNSGSLSSGVHTFPAVLQSDLYTLSSSVTVPSSTWPSQTVTCNVAHPASSTKVDKKIVPRDC
heavy: EVQLLESGGGLVQPGGSLRLSCAASGFTFSSHAMSWVRQAPGKGLEWVSAIWASGEQYYADSVKGRFTISRDNSKNTLYLQMNSLRAEDTAVYYCAKGWLGNFDYWGQGTLVTVSSAKTTPPSVYPLAPGSAAQTNSMVTLGCLVKGYFPEPVTVTWNSGSLSSGVHTFPAVLQSDLYTLSSSVTVPSSTWPSQTVTCNVAHPASSTKVDKKIVPRDCGCKPCICTVPEVSSVFIFPPKPKDVLTITLTPKVTCVVVAISKDDPEVQFSWFVDDVEVHTAQTKPREEQINSTFRSVSELPIMHQDWLNGKEFKCRVNSAAFGAPIEKTISKTKGRPKAPQVYTIPPPKKQMAKDKVSLTCMITNFFPEDITVEWQWNGQPAENYKNTQPIMKTDGSYFVYSKLNVQKSNWEAGNTFTCSVLHEGLHNHHTEKSLSHSPGK
light: EIVLTQSPGTLSLSPGERATLSCRASQSVSRSYLAWYQQKPGQAPRLLIIGASTRATGIPDRFSGSGSGTDFTLTISRLEPEDFAVYYCQQGQVIPPTFGQGTKVEIKRADAAPTVSIFPPSSEQLTSGGASVVCFLNNFYPKDINVKWKIDGSERQNGVLNSWTDQDSKDSTYSMSSTLTLTKDEYERHNSYTCEATHKTSTSPIVKSFNRNEC
notes: murine IgG1 DD/KK, DAPG; anti-FAP 28H1
B2: FAP-targeted murine 4-1BB ligand trimer-containing Fc fusion antigen binding molecule Construct M.2 (Fc fusion)
chain 1: RTEPRPALTITTSPNLGTRENNADQVTPVSHIGCPNTTQQGSPVFAKLLAKNQASLSNTTLNWHSQDGAGSSYLSQGLRYEEDKKELVVDSPGLYYVFLELKLSPTFTNTGHKVQGWVSLVLQAKPQVDDFDNLALTVELFPCSMENKLVDRSWSQLLLLKAGHRLSVGLRAYLHGAQDAYRDWELSYPNTTSFGLFLVKPDNPWEGGGGSGGGGSRTEPRPALTITTSPNLGTRENNADQVTPVSHIGCPNTTQQGSPVFAKLLAKNQASLSNTTLNWHSQDGAGSSYLSQGLRYEEDKKELVVDSPGLYYVFLELKLSPTFTNTGHKVQGWVSLVLQAKPQVDDFDNLALTVELFPCSMENKLVDRSWSQLLLLKAGHRLSVGLRAYLHGAQDAYRDWELSYPNTTSFGLFLVKPDNPWEGGGGSGGGGSRADAAPTVSIFPPSSEQLTSGGASVVCFLNNFYPKDINVKWKIDGSERQNGVLNSWTDQDSKDSTYSMSSTLTLTKDEYERHNSYTCEATHKTSTSPIVKSFNRNECVPRDCGCKPCICTVPEVSSVFIFPPKPKDVLTITLTPKVTCVVVAISKDDPEVQFSWFVDDVEVHTAQTKPREEQINSTFRSVSELPIMHQDWLNGKEFKCRVNSAAFGAPIEKTISKTKGRPKAPQVYTIPPPKEQMAKDKVSLTCMITNFFPEDITVEWQWNGQPAENYDNTQPIMDTDGSYFVYSDLNVQKSNWEAGNTFTCSVLHEGLHNHHTEKSLSHSPGK
chain 2: RTEPRPALTITTSPNLGTRENNADQVTPVSHIGCPNTTQQGSPVFAKLLAKNQASLSNTTLNWHSQDGAGSSYLSQGLRYEEDKKELVVDSPGLYYVFLELKLSPTFTNTGHKVQGWVSLVLQAKPQVDDFDNLALTVELFPCSMENKLVDRSWSQLLLLKAGHRLSVGLRAYLHGAQDAYRDWELSYPNTTSFGLFLVKPDNPWEGGGGSGGGGSAKTTPPSVYPLAPGSAAQTNSMVTLGCLVKGYFPEPVTVTWNSGSLSSGVHTFPAVLQSDLYTLSSSVTVPSSTWPSQTVTCNVAHPASSTKVDKKIVPRDC
heavy: EVQLLESGGGLVQPGGSLRLSCAASGFTFSSHAMSWVRQAPGKGLEWVSAIWASGEQYYADSVKGRFTISRDNSKNTLYLQMNSLRAEDTAVYYCAKGWLGNFDYWGQGTLVTVSSAKTTPPSVYPLAPGSAAQTNSMVTLGCLVKGYFPEPVTVTWNSGSLSSGVHTFPAVLQSDLYTLSSSVTVPSSTWPSQTVTCNVAHPASSTKVDKKIVPRDCGCKPCICTVPEVSSVFIFPPKPKDVLTITLTPKVTCVVVAISKDDPEVQFSWFVDDVEVHTAQTKPREEQINSTFRSVSELPIMHQDWLNGKEFKCRVNSAAFGAPIEKTISKTKGRPKAPQVYTIPPPKKQMAKDKVSLTCMITNFFPEDITVEWQWNGQPAENYKNTQPIMKTDGSYFVYSKLNVQKSNWEAGNTFTCSVLHEGLHNHHTEKSLSHSPGK
light: EIVLTQSPGTLSLSPGERATLSCRASQSVSRSYLAWYQQKPGQAPRLLIIGASTRATGIPDRFSGSGSGTDFTLTISRLEPEDFAVYYCQQGQVIPPTFGQGTKVEIKRADAAPTVSIFPPSSEQLTSGGASVVCFLNNFYPKDINVKWKIDGSERQNGVLNSWTDQDSKDSTYSMSSTLTLTKDEYERHNSYTCEATHKTSTSPIVKSFNRNEC
B3: humanized anti-human CD19 antibody var.5 (S27eP), named clone 8B8-018 (antibody, V domains shown)
VH: QVQLVQSGAEVKKPGASVKVSCKASGYTFTDYIMHWVRQAPGQGLEWMGYINPYNDGSKYTEKFQGRVTMTSDTSISTAYMELSRLRSDDTAVYYCARGTYYYGSALFDYWGQGTTVTVSS
VL: DIVMTQTPLSLSVTPGQPASISCKSSQSLENPNGNTYLNWYLQKPGQSPQLLIYRVSKRFSGVPDRFSGSGSGTDFTLKISRVEAEDVGVYYCLQLTHVPYTFGQGTKLEIK
notes: 5 is named clone 8B8-018; also called variant 5
B4: humanized anti-human CD19 antibody var.9 (S27eP/N28S) (antibody, V domains shown)
VH: QVQLVQSGAEVKKPGASVKVSCKASGYTFTDYIMHWVRQAPGQGLEWMGYINPYNDGSKYTEKFQGRVTMTSDTSISTAYMELSRLRSDDTAVYYCARGTYYYGSALFDYWGQGTTVTVSS
VL: DIVMTQTPLSLSVTPGQPASISCKSSQSLENPSGNTYLNWYLQKPGQSPQLLIYRVSKRFSGVPDRFSGSGSGTDFTLKISRVEAEDVGVYYCLQLTHVPYTFGQGTKLEIK
notes: also called variant 9

Assays:
[1] = molecular target: T1, mouse 4-1BB on activated mouse splenocytes (mouse, UniProt P20334 24-256); assay: flow cytometry on activated mouse splenocytes, 4-1BB+ CD8+ T cells
T1 construct: whole, on cells; also called murine 4-1BB

[2] = molecular target: T2, human fibroblast activation protein (FAP) on cells (human, UniProt Q12884 1-760); assay: flow cytometry on FAP+ WM-266-4 cells
T2 construct: also called human FAP; huFAP

[3] = molecular target: T2, human fibroblast activation protein …; assay: flow cytometry on FAP+ MV-3 cells
[4] = molecular target: T1, mouse 4-1BB on activated mouse …; assay: flow cytometry on activated mouse splenocytes, 4-1BB+ CD4+ T cells
[5] = molecular target: T3, human CD19 (recombinant, form not given) (human, UniProt P15391 20-291, limits assumed); assay: BIACORE (SPR), format not described
T3 construct: also called huCD19
T3 sequence (looked up): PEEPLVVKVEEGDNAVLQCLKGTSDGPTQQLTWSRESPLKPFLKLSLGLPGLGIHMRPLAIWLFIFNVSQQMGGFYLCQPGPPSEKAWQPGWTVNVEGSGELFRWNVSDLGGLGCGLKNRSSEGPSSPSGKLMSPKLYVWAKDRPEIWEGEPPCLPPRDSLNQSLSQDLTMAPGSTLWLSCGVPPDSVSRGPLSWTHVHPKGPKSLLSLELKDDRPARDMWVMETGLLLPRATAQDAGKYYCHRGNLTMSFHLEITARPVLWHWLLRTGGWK

[6] = molecular target: T3, human CD19 (recombinant, form not …); assay: relative binding after incubation, method not described
[7] = molecular target: T4, cyCD19 ECD (cynomolgus); assay: binding to CD19 ECD, assay not described
T4 construct: extracellular domain; also called cynomolgus CD19

[8] = molecular target: T5, huCD19 ECD (human, UniProt P15391 20-291); assay: binding to CD19 ECD, assay not described
T5 construct: extracellular domain
T5 sequence (looked up): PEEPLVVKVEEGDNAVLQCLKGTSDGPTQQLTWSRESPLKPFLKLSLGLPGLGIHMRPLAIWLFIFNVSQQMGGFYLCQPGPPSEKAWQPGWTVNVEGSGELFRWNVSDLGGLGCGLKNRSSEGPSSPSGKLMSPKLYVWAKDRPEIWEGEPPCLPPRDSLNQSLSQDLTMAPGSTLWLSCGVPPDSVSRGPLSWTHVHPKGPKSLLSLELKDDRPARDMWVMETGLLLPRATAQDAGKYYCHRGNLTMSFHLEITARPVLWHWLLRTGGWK

T1 sequence (P20334 24-256): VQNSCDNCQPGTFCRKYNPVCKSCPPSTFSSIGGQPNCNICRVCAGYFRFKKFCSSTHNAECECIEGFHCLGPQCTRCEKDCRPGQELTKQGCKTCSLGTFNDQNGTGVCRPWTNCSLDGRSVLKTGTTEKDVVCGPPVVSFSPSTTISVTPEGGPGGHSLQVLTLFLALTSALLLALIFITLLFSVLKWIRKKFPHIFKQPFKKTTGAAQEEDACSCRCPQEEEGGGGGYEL

Binder | EC50 [1] [nM] | EC50 [2] [nM] | EC50 [3] [nM] | EC50 [4] [nM] | Kd [5] [nM] | t1/2 [5] [min] | human CD19 binding after pH 6.0 incubation [%] [6] [%] | human CD19 binding after pH 7.4 incubation [%] [6] [%] | EC50 [7] [mg/L] | EC50 [8] [mg/L]
B1 | 0.87 | 5.14 | 7.26 | 0.52 | – | – | – | – | – | –
B2 | 0.54 | 5.63 | 6.9 | 0.42 | – | – | – | – | – | –
B3 | – | – | – | – | 6 | 43.6 | 99 | 95 | 0.255 | 0.084
B4 | – | – | – | – | 45 | 4 | 87 | – | 0.435 | 0.089
